Test results published in publication PMC6778148.

Target: fluorescein-labelled divalent stargazin-derived peptide ligand
Experiment: fluorescence polarisation; direct titration: 50 nM fluorescein-labelled stargazin ligand (divalent or monovalent) against increasing concentrations of PDZ domains; apparent KD

- Kd: 175 nM
B1: SAP102 tandem PDZ domains 1 and 2 (SAP102-12), from pET-NO (domain or fragment)
chain: FKYEEIVLERGNSGLGFSIAGGIDNPHVPDDPGIFITKIIPGGAAAMDGRLGVNDCVLRVNEVDVSEVVHSRAVEALKEAGPVVRLVVRRRQPPPETIMEVNLLKGPKGLGFSIAGGIGNQHIPGDNSIYITKIIEGGAAQKDGRLQIGDRLLAVNNTNLQDVRHEEAVASLKNTSDMVYLKVAKPGSL
